In publication PMC3630089, “ATP-Dependent Chromatin Remodeling by Cockayne Syndrome Protein B and NAP1-Like Histone Chaperones Is Required for Efficient Transcription-Coupled DNA Repair” (PLoS Genetics, 2013):

Target: T1, CSBΔN1 (CSB lacking amino acids 245-365), purified from SF9 cells (human, UniProt Q03468 1-1493, removing amino acids 245–365)
T1 construct: CSB with the N1 region (amino acids 245-365) removed; probably Flag-tagged like the other SF9 CSB proteins; source: SF9 cells, purified
Assay: pull-down; GST-NAP1L1 immobilized on glutathione beads, mixed with purified CSB or CSBΔN1; Western blot
Settings: both partners purified

T1 sequence (Q03468 other isoform, or with tags, fused parts or gaps with the stated changes): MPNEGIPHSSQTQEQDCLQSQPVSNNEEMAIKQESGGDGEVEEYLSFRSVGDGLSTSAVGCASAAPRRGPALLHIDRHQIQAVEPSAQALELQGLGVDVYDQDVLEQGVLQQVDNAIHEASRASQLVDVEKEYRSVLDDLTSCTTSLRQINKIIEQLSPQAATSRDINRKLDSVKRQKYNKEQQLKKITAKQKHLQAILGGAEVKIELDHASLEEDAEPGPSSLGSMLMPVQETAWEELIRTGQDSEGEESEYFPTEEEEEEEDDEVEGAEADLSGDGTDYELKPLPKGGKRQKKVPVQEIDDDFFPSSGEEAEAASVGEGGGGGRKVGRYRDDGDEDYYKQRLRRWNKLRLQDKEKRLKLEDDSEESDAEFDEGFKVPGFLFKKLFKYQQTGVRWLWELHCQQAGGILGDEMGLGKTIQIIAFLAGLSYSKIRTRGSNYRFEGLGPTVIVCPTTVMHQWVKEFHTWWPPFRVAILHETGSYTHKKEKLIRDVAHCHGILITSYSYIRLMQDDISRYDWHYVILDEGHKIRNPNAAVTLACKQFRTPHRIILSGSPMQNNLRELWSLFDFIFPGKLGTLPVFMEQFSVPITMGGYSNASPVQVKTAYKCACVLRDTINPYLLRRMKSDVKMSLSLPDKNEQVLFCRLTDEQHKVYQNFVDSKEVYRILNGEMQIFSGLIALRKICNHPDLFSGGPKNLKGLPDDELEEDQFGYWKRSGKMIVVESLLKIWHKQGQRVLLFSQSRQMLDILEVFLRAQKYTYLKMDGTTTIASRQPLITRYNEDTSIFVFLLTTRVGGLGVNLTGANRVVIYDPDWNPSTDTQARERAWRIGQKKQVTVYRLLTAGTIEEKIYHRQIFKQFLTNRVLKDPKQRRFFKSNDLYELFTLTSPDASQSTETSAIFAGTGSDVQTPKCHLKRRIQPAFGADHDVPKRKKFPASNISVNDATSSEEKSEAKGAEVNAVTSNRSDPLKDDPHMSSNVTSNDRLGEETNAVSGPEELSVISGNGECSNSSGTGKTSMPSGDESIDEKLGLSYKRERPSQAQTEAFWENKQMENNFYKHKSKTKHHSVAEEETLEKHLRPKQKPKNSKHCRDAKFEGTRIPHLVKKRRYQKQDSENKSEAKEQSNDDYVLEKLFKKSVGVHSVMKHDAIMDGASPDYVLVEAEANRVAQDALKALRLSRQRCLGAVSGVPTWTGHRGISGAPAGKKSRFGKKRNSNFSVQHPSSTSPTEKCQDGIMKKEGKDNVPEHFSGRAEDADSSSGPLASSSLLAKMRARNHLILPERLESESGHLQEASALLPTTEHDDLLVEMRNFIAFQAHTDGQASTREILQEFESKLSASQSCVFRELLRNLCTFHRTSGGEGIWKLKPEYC

binding result: binds
B1: GST-NAP1L1 fusion protein (natural protein, human, UniProt P55209 1-391, looked up)
chain: MADIDNKEQSELDQDLDDVEEVEEEETGEETKLKARQLTVQMMQNPQILAALQERLDGLVETPTGYIESLPRVVKRRVNALKNLQVKCAQIEAKFYEEVHDLERKYAVLYQPLFDKRFEIINAIYEPTEEECEWKPDEEDEISEELKEKAKIEDEKKDEEKEDPKGIPEFWLTVFKNVDLLSDMVQEHDEPILKHLKDIKVKFSDAGQPMSFVLEFHFEPNEYFTNEVLTKTYRMRSEPDDSDPFSFDGPEIMGCTGCQIDWKKGKNVTLKTIKKKQKHKGRGTVRTVTKTVSNDSFFNFFAPPEVPESGDLDDDAEAILAADFEIGHFLRERIIPRSVLYFTGEAIEDDDDDYDEEGEEADEEGEEEGDEENDPDYDPKKDQNPAECKQQ
notes: human NAP1-like histone chaperone NAP1L1; source: bacterially expressed, immobilized on glutathione beads
